# The supplement of paper PMC9233669
# Fewer inactive variants are shown than the library holds.
# Columns and labels:
# [1] = test system: biotinyl-Phe-oxazolone; assay: self-aminoacylation, catalytic enhancement (BFO) (fold over background); higher = more active; k-Seq, kA / k0A0; sequences stand for … in GGGAAUGGAUCCACAUCUACGAAUUC…UUCACUGCAGACUUGACGAAGCUG
# In short: (§1)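 Each biotinyl-aminoacyl-oxazolone, at 2–1250 μM, was incubated with mutagenized RNA pools (0.43 μM) carrying a 21-nt variable region. The 50 μL reactions contained HEPES/NaCl/KCl/MgCl2/CaCl2 buffer with 5% acetonitrile at pH 6.9–7.0 and ran for 90 minutes at room temperature. After streptavidin capture, RNA was measured by qPCR in triplicate and by Illumina sequencing, and catalytic enhancement was calculated as median kA over the uncatalyzed rate from a pseudo-first-order fit of per-sequence fraction reacted.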
# [2] = test system: biotinyl-Val-oxazolone; assay: self-aminoacylation, catalytic enhancement (BVO) (fold over background); higher = more active; k-Seq, kA / k0A0; sequences stand for … in GGGAAUGGAUCCACAUCUACGAAUUC…UUCACUGCAGACUUGACGAAGCUG
# In short: as §1
# [3] = test system: biotinyl-Trp-oxazolone; assay: self-aminoacylation, catalytic enhancement (BWO) (fold over background); higher = more active; k-Seq, kA / k0A0; sequences stand for … in GGGAAUGGAUCCACAUCUACGAAUUC…UUCACUGCAGACUUGACGAAGCUG
# In short: as §1
# [4] = test system: biotinyl-Ile-oxazolone; assay: self-aminoacylation, catalytic enhancement (BIO) (fold over background); higher = more active; k-Seq, kA / k0A0; sequences stand for … in GGGAAUGGAUCCACAUCUACGAAUUC…UUCACUGCAGACUUGACGAAGCUG
# In short: as §1
# [5] = test system: biotinyl-Met-oxazolone; assay: self-aminoacylation, catalytic enhancement (BMO) (fold over background); higher = more active; k-Seq, kA / k0A0; sequences stand for … in GGGAAUGGAUCCACAUCUACGAAUUC…UUCACUGCAGACUUGACGAAGCUG
# In short: as §1
# [6] = test system: biotinyl-Leu-oxazolone; assay: self-aminoacylation, catalytic enhancement (BLO) (fold over background); higher = more active; k-Seq, kA / k0A0; sequences stand for … in GGGAAUGGAUCCACAUCUACGAAUUC…UUCACUGCAGACUUGACGAAGCUG
# In short: as §1
Sequence,self-aminoacylation [1],self-aminoacylation [2],self-aminoacylation [3],self-aminoacylation [4],self-aminoacylation [5],self-aminoacylation [6]
AUUACUCUGGUCGUCGAGUGA [Fam2.1 aminoacylation ribozyme variant],0.488,1.16,0.657,1.08,1.16,1.31
AUUACUCUGGUGAUCGAGUGA [Fam2.1 aminoacylation ribozyme variant],21.8,2.57,6.39,2.92,5.34,5.72
AUUACUCUGUUCAUCGAGUGA [Fam2.1 aminoacylation ribozyme variant],3.86,1.94,3.94,1.9,2.88,3.42
AUUACUCUUGUCAUCGAGUGA [Fam2.1 aminoacylation ribozyme variant],22,3.45,7.7,3.58,6.03,6.33
AUUAGCCUAGUCAUCGAGUGA [Fam2.1 aminoacylation ribozyme variant],4.14,2.18,3.09,2.47,2.65,2.79
AUUAGCCUGGACAUCGAGUGA [Fam2.1 aminoacylation ribozyme variant],45.3,3.53,8.52,3.91,8.78,9.56
AUUAGCCUGGUCAUCGAGCGA [Fam2.1 aminoacylation ribozyme variant],2.04,2.53,4.5,2.55,2.52,2.59
AUUAGCCUGGUCAUCGCGUGA [Fam2.1 aminoacylation ribozyme variant],165,11.2,22.6,10.3,21.7,22.3
AUUAGCCUGGUCAUCUAGUGA [Fam2.1 aminoacylation ribozyme variant],19.2,2.98,6.32,3.39,4.79,5.06
AUUAGCCUGGUCAUGGAGUGA [Fam2.1 aminoacylation ribozyme variant],17.2,2.72,4.92,2.77,4.09,4.02
AUUAGCCUGUUCAUCGAGUGA [Fam2.1 aminoacylation ribozyme variant],18,3.27,7.22,3.04,5.64,5.5
AUUAGUCUGGUCAUCGAGUGA [Fam2.1 aminoacylation ribozyme variant],13,2.62,3.94,3.35,3.43,4.42
AUUAUCCCGGUCAUCGAGUGA [Fam2.1 aminoacylation ribozyme variant],61.2,4.35,11,4.32,8.46,10.6
AUUAUCCUAGUCAUCGAGUGA [Fam2.1 aminoacylation ribozyme variant],26.4,3.15,8.1,3.35,5.97,6.53
AUUAUCCUGAUCAUCGAGUGA [Fam2.1 aminoacylation ribozyme variant],60,4.92,11.8,4.92,11.1,11.4
AUUAUCCUGGUCAUAGAGUGA [Fam2.1 aminoacylation ribozyme variant],59,4.11,11.7,4.58,9.86,10.1
AUUAUCCUGGUCAUCGAGAGA [Fam2.1 aminoacylation ribozyme variant],1.15,0.989,0.862,1.08,0.869,0.847
AUUAUCCUGGUCAUCGUGUGA [Fam2.1 aminoacylation ribozyme variant],28.6,2.05,5.91,2.15,3.54,3.83
AUUAUCCUGUUCAUCGAGUGA [Fam2.1 aminoacylation ribozyme variant],22.6,3,7.47,2.87,5.98,6
AUUAUCCUUGUCAUCGAGUGA [Fam2.1 aminoacylation ribozyme variant],25.2,3.57,8.67,3.49,6.66,6.7
AUUCAACAAGGUCAUCGGGUG [Fam2.2 aminoacylation ribozyme variant],57.7,3.32,5.71,4.09,7.02,7.96
AUUCAACUAGGGCAUCGGGUG [Fam2.2 aminoacylation ribozyme variant],22.4,2.88,2.99,2.7,3.16,4.3
AUUCAACUAGGUCAUCGCGUG [Fam2.2 aminoacylation ribozyme variant],65.2,5.81,9.5,5.91,9.12,13.6
AUUCAACUAGGUCAUCGGGUA [Fam2.2 aminoacylation ribozyme variant],7.29,2.19,2.89,1.78,2.01,2.16
AUUCAACUAGGUCAUCGGGUC [Fam2.2 aminoacylation ribozyme variant],1.77,0.979,1.22,1.02,1.14,1.15
AUUCAACUAGGUCAUCGGGUU [Fam2.2 aminoacylation ribozyme variant],4.65,1.66,1.8,1.5,1.91,1.95

Sequence,self-aminoacylation [1],self-aminoacylation [2],self-aminoacylation [3],self-aminoacylation [4],self-aminoacylation [5],self-aminoacylation [6]
AUUCAACUAGGUCAUCGGUUG [Fam2.2 aminoacylation ribozyme variant],0.677,0.963,0.843,0.952,0.933,0.889
AUUCAACUAGGUCCUCGGGUG [Fam2.2 aminoacylation ribozyme variant],35.7,3.32,5.55,3.44,5.22,7.66
AUUCAAUUAGGUCAUCGGGUG [Fam2.2 aminoacylation ribozyme variant],42.1,3.44,5.33,3.56,6,7.25
AUUCACAUAGGACAUCGGGUG [Fam2.2 aminoacylation ribozyme variant],17.7,3.22,3.93,2.84,3.84,4.24
AUUCACAUAGGUCAACGGGUG [Fam2.2 aminoacylation ribozyme variant],28.8,2.81,4.39,2.85,4.31,5.9
AUUCACAUAGGUCAUAGGGUG [Fam2.2 aminoacylation ribozyme variant],2.85,1.54,1.66,1.55,2.17,2.3
AUUCACAUAGGUCAUCGGGCG [Fam2.2 aminoacylation ribozyme variant],6.68,2.33,2.3,2.05,2.5,3.11
AUUCACAUAGGUCAUUGGGUG [Fam2.2 aminoacylation ribozyme variant],29.1,3.23,4.51,2.74,4.35,5.11
AUUCACAUAGGUCUUCGGGUG [Fam2.2 aminoacylation ribozyme variant],39.4,4.59,5.51,4.26,4.21,5.35
AUUCACAUAGGUGAUCGGGUG [Fam2.2 aminoacylation ribozyme variant],20.5,3.14,3.79,3.05,3.4,3.56
AUUCACAUAGUUCAUCGGGUG [Fam2.2 aminoacylation ribozyme variant],19.2,2.3,2.42,2.27,2.76,3.48
AUUCACAUGGGUCAUCGGGUG [Fam2.2 aminoacylation ribozyme variant],70.4,5.96,8.84,5.6,9.66,11.6
AUUCACCAAAGUCAUCGGGUG [Fam2.2 aminoacylation ribozyme variant],110,8.23,13.6,9.57,15.3,19.5
AUUCACCAAGGUCACCGGGUG [Fam2.2 aminoacylation ribozyme variant],55.5,6.12,5.09,5.1,8.25,9.86
AUUCACCAAGGUCAUCGAGUG [Fam2.2 aminoacylation ribozyme variant],14.4,2.23,2.57,2.27,4.1,4.52
AUUCACCAAGGUCAUCGGGCG [Fam2.2 aminoacylation ribozyme variant],16,3.64,3.82,3.24,4.07,4.59
AUUCACCAAGGUCUUCGGGUG [Fam2.2 aminoacylation ribozyme variant],37.2,4.41,4.45,4.41,5.94,6.3
AUUCACCCAGGUCAACGGGUG [Fam2.2 aminoacylation ribozyme variant],19.7,2.53,3.81,1.96,3.24,4.29
AUUCACCCAGGUCAUCGGGGG [Fam2.2 aminoacylation ribozyme variant],11.7,1.6,1.92,1.86,2.1,2.17
AUUCACCGAAGUCAUCGGGUG [Fam2.2 aminoacylation ribozyme variant],152,9.73,15.1,9.89,17.6,23.7
AUUCACCGAGGACAUCGGGUG [Fam2.2 aminoacylation ribozyme variant],35.9,3.78,5.74,3.59,5.56,6.02
AUUCACCGAGGUCAGCGGGUG [Fam2.2 aminoacylation ribozyme variant],38.8,4.67,6.61,5.26,5.57,6.67
AUUCACCGAGGUCAUAGGGUG [Fam2.2 aminoacylation ribozyme variant],7.43,1.91,2.21,1.71,2.29,3.17
AUUCACCGAGGUCAUCCGGUG [Fam2.2 aminoacylation ribozyme variant],80.2,8.04,10.1,7.31,9.07,12.4
AUUCACCGAGGUCAUCGAGUG [Fam2.2 aminoacylation ribozyme variant],12.6,2.17,2.82,1.75,2.89,3.6
